Source: article PMC6249252, “COMP and TSP-4 interact specifically with the novel GXKGHR motif only found in fibrillar collagens” (Scientific Reports, 2018)

Assays:
Test in all cases: ELISA; collagen model peptide or collagen XI coated; COMP or TSP-4 at indicated concentrations in TBS-T with 0.25% BSA, 1 h, room temperature; detected with anti-COMP or anti-TSP-4 antibody; four-parameter logistic fit; apparent KD
[1] = molecular target: GVKGHR foldon collagen model peptide (minimal binding site) (not stated | bacteriophage T4)
[2] = molecular target: … foldon collagen model peptide (histidine to proline) (not stated | bacteriophage T4)
[3] = molecular target: … foldon collagen model peptide (valine to proline) (not stated | bacteriophage T4)

cartilage oligomeric matrix protein (COMP), wild type, pentameric, sequence (P49747 21-757): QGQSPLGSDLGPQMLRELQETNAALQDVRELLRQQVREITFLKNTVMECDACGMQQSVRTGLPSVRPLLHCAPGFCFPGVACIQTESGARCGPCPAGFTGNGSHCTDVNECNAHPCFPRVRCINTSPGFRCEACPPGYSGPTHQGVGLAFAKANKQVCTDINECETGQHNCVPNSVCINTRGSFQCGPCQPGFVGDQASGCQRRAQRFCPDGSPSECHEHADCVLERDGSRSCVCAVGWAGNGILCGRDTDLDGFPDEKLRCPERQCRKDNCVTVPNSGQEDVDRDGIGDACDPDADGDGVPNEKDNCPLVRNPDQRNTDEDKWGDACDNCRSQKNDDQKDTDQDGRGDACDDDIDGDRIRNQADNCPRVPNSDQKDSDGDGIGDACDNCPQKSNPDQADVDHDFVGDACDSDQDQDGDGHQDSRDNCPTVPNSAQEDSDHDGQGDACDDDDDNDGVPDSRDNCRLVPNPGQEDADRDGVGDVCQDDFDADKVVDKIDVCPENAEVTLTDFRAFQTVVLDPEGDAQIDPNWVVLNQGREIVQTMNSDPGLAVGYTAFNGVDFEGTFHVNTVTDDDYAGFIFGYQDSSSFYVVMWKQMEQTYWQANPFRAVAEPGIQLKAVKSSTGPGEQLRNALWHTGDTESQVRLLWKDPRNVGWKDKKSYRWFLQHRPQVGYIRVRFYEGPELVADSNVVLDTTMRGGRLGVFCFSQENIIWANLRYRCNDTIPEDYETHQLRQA
thrombospondin-4 (TSP-4), sequence (P35443 27-961): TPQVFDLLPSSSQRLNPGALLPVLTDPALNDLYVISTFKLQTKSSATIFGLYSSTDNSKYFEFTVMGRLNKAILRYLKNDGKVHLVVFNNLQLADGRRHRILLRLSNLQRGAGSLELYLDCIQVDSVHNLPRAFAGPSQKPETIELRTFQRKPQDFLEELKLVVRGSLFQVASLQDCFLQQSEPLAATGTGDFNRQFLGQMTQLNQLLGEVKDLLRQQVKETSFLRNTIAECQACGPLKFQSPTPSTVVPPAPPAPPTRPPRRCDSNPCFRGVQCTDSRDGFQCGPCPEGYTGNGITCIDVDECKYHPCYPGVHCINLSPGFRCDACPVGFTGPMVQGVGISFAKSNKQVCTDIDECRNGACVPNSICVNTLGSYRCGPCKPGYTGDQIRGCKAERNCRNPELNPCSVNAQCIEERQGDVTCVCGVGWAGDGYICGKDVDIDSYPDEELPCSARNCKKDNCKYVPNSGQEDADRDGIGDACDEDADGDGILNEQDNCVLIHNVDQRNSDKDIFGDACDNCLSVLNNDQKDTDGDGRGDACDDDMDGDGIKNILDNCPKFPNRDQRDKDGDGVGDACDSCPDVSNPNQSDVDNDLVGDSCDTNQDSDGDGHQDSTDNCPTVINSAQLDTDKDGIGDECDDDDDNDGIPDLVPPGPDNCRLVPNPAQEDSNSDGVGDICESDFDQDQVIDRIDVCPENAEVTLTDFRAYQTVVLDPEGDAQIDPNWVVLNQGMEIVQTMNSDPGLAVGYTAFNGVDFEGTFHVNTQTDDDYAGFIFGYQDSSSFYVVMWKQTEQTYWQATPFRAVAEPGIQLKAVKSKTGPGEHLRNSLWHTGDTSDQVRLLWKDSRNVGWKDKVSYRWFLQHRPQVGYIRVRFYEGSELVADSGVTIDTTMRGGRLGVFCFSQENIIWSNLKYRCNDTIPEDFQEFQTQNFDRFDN

| Kd [1] [nM] | Kd [2] [nM] | Kd [3] [nM] | Substance |
| --- | --- | --- | --- |
| 1.61 | 496 | 2.26 | cartilage oligomeric matrix protein (COMP), wild type, pentameric (from UniProt P49747 21-757) (natural protein) |
| 0.56 |  |  | thrombospondin-4 (TSP-4) (from UniProt P35443 27-961) (natural protein) |
